Experimental data published in paper PMC8688572 (The Journal of Biological Chemistry, 2021).

Biological target: the molecule itself
Assay: negative stain electron microscopy

B1: zebrafish Impdh1a (544) (enzyme)
chain: not shown
  binding result: binds
